Patent US20260258388A1 (REGENTS OF THE UNIVERSITY OF MICHIGAN, published 2026)

Legend:
[1] = target: Ly76 (Ter119 antigen) on mouse red blood cells (mouse); assay: cell-based or functional assay
[2] = target: Ly76 (Ter119 antigen) on mouse red blood cells (mouse); assay: binding assay on mouse RBCs
[3] = target: Ly76 (Ter119 antigen) on mouse red blood cells (mouse); assay: binding assay using mouse RBC ghosts
[4] = target: Ly76 (Ter119 antigen) on mouse red blood cells (mouse); assay: 125I-labelled protein injected in mice; radioactivity in RBC pellet vs plasma 1 hour after injection
human FcγRIIA [5] = target: T1, human FcγRIIA (human, UniProt P12318 34-317); assay: flow cytometry, human platelets, His-tagged protein detected with Alexa 488 anti-His antibody
T1 construct: whole, on cells; also called hFcγRIIA; platelet FcγRIIA
T1 sequence (looked up): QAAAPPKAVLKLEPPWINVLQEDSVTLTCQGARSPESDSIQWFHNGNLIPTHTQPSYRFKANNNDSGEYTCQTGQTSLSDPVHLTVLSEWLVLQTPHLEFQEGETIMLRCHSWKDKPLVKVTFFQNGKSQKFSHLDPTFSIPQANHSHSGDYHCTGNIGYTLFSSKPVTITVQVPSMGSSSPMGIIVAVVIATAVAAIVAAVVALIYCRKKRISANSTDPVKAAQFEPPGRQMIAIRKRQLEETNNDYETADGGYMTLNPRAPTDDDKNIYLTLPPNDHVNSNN

human FcγRIIA [6] = target: T1, human FcγRIIA; assay: flow cytometry, THP-1 cells
human FcγRIIA [7] = target: T1, human FcγRIIA; assay: flow cytometry, human platelets
human FcγRIIA [8] = target: T1, human FcγRIIA; assay: flow cytometry, washed platelets of transgenic mice expressing human FcγRIIA

Question: For Ter119 scFv-IdeS fusion protein, which inhibition of agglutination of mouse RBCs loaded with Ter119 mAb [1] is on record?
Answer: Its inhibition of agglutination of mouse RBCs loaded with Ter119 mAb is 1.25 nM.

Question: And the Kd [2]?
Answer: The Kd was 25 nM.

Question: What about the Kd [3] of the same molecule?
Answer: The Kd was 26 nM.

Question: And the percent bound to RBCs in blood [4]?
Answer: The percent bound to RBCs in blood was greater than 98%.

Question: How did the Kd [3] turn out when Ter119 scFv was run?
Answer: The Kd was 30 nM.

B1: scIV.3-IdeS (scFv)
chain: QVQLVQSGAEVKKPGASVKVSCKASGYTFTNYGMNWVRQAPGQRLEWMGWLNTYTGESWYPDDFKGRVTITRDTSASTAYMELSSLRSEDTAVYYCARGDYGYDDPLDYWGQGTLVTVSSGAGGSGGGGSGGGGSGGGGSDIVMTQSPLSLPVTPGEPASISCRSSKSLLHTNQNTYLHWFLQKPGQSPQLLIYRMSVLASGVPDRFSGSGSGTDFTLKISRVEAEDVGVYYCMQHLEYPLTFGQGTKLEIKRGSSSGLPETGGGSSDSFSANQEIRYSEVTPYHVTSVWTKGVTPPANFTQGEDVFHAPYVANQGWYDITKTFNGKDDLLCGAATAGNMLHWWFDQNKDQIKRYLEEHPEKQKINFNGEQMFDVKEAIDTKNHQLDSKLFEYFKEKAFPYLSTKHLGVFPDHVIDMFINGYRLSLTNHGPTPVKEGSKDPRGGIFDAVFTRGDQSKLLTSRHDFKEKNLKEISDLIKKELTEGKALGLSHTYANVRINHVINLWGADFDSNGNLKAIYVTDSDSNASIGMKKYFVGVNSAGKVAISAKEIKEDNIGAQVLGLFTLSTGQDSWNQTNHHHHHH
notes: also called IV.3-IdeS conjugate; His-tagged scIV.3-IdeS
Question: B1 was tested. Which Kd (human FcγRIIA [5]) did it give?
Answer: The Kd was 1.3 nM.

B2: scIV.3 (single-chain variable fragment of IV.3, scIV.3-LPETGG) (scFv)
scFv: QVQLVQSGAEVKKPGASVKVSCKASGYTFTNYGMNWVRQAPGQRLEWMGWLNTYTGESWYPDDFKGRVTITRDTSASTAYMELSSLRSEDTAVYYCARGDYGYDDPLDYWGQGTLVTVSSGAGGSGGGGSGGGGSGGGGSDIVMTQSPLSLPVTPGEPASISCRSSKSLLHTNQNTYLHWFLQKPGQSPQLLIYRMSVLASGVPDRFSGSGSGTDFTLKISRVEAEDVGVYYCMQHLEYPLTFGQGTKLEIKRGSSSGLPETGGGHHHHHH
notes: also called His-tagged scIV.3; IV.3 scFv
Question: How did the Kd (human FcγRIIA [5]) turn out when B2 was run?
Answer: Its Kd is 0.9 nM.

B3: scIV.3-LPETGG-FAM (scFv)
scFv: QVQLVQSGAEVKKPGASVKVSCKASGYTFTNYGMNWVRQAPGQRLEWMGWLNTYTGESWYPDDFKGRVTITRDTSASTAYMELSSLRSEDTAVYYCARGDYGYDDPLDYWGQGTLVTVSSGAGGSGGGGSGGGGSGGGGSDIVMTQSPLSLPVTPGEPASISCRSSKSLLHTNQNTYLHWFLQKPGQSPQLLIYRMSVLASGVPDRFSGSGSGTDFTLKISRVEAEDVGVYYCMQHLEYPLTFGQGTKLEIKR
modifications: FAM-containing peptide attached site-specifically to the C-terminal sortag (LPET) by sortase
notes: Single chain variable fragment of monoclonal antibody IV.3, C-terminally modified with a FAM peptide by sortase; also called scIV.3-FAM; FAM-conjugated scIV.3; not shown: short semi-rigid linker, sortag LPET and the FAM-containing peptide joined by sortase
Question: Which results are given for B3?
Answer: Kd (human FcγRIIA [6]): 11 nM; Kd (human FcγRIIA [7]): 1 nM; Kd (human FcγRIIA [8]): 0.27 nM
